Measured values as given in paper PMC2929395.

B1: PanK3(S195V) (Homo sapiens; S195V) (protein)
chain: MKIKDAKKPSFPWFGMDIGGTLVKLSYFEPIDITAEEEQEEVESLKSIRKYLTSNVAYGSTGIRDVHLELKDLTLFGRRGNLHFIRFPTQDLPTFIQMGRDKNFSTLQTVLCATGGGAYKFEKDFRTIGNLHLHKLDELDCLVKGLLYIDSVSFNGQAECYYFANASEPERCQKMPFNLDDPYPLLVVNIGSGVVILAVHSKDNYKRVTGTSLGGGTFLGLCSLLTGCESFEEALEMASKGDSTQADKLVRDIYGGDYERFGLPGWAVASSFGNMIYKEKRESVSKEDLARATLVTITNNIGSVARMCAVNEKINRVVFVGNFLRVNTLSMKLLAYALDYWSKGQLKALFLEHEGYFGAVGALLGLPNFS
B2: PanK3 (Homo sapiens) (protein)
chain: MKIKDAKKPSFPWFGMDIGGTLVKLSYFEPIDITAEEEQEEVESLKSIRKYLTSNVAYGSTGIRDVHLELKDLTLFGRRGNLHFIRFPTQDLPTFIQMGRDKNFSTLQTVLCATGGGAYKFEKDFRTIGNLHLHKLDELDCLVKGLLYIDSVSFNGQAECYYFANASEPERCQKMPFNLDDPYPLLVVNIGSGVSILAVHSKDNYKRVTGTSLGGGTFLGLCSLLTGCESFEEALEMASKGDSTQADKLVRDIYGGDYERFGLPGWAVASSFGNMIYKEKRESVSKEDLARATLVTITNNIGSVARMCAVNEKINRVVFVGNFLRVNTLSMKLLAYALDYWSKGQLKALFLEHEGYFGAVGALLGLPNFS

Substrate: CC(C)(CO)[C@@H](O)C(=O)NCCC(=O)O
Assay: purified protein, by the assay type
Conditions: pH 7.5, 37.0 °C

Row | Protein | Km (other: substrate) [µM] | Km (other: wild-type PanK3, substrate) [µM]
1 | B1 | 151 ± 16 | –
2 | B2 | – | 14 ± 0.1
